B1: Azoarcus group I ribozyme (parent)
chain: GUGCCUUGCGCCGGGAAACCACGCAAGGGAUGGUGUCAAAUUCGGCGAAACCUAAGCGCCCGCCCGGGCGUAUGGCAACGCCGAGCCAAGCUUCGGCGCCUGCGCCGAUGAAGGUGUAGAGACUAGACGGCACCCACCUAAGGCAAACGCUAUGGUGAAGGCAUAGUCCAGGGAGUGGCGAAAGUCACACAAACCGG

The variants in this series derive from B1. The series is described as follows: reverse-splicing fitness (ratio to wild type); higher = more active; in vitro selection; Mg2+ level not given. In short, it runs like this: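 An in vitro group I ribozyme library with randomized positions was T7-transcribed and gel-purified. In triplicate, 10 pmol RNA in EPPS pH 7.5 was reacted with 50 pmoles of a 30-nt RNA substrate for 1 h at 37 °C across several added MgCl2 levels (1–48 mM), then stopped with EDTA. Products were reverse transcribed from a substrate-complementary primer, PCR-amplified and sequenced (HiSeq 4000). Fitness is a variant's read proportion after selection over that before, normalised to wild type.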
With GUGCCUUGCGCCGGGAAACCACGCAAGGGAUGGUGUCAAAUUCGGCGAAACCUAAGCGCCCGCCCGGGCGUAUGGCAACGCGGAGCCAAGCUUCGGCGCCUGCGCCGAUGAAGGUGUAGUGACUAGACGGCACCCACCUAAGGCAAACGUUAUGGUGAAGGCAUAGUCCAGGGAGGGGCGAAAGUCACACAAACCGG [C82G A120U C150U U176G], the reverse-splicing fitness is 0.0119. Turning to GUGCCUUGCGCCGGGAAACCACGCAAGGGAUGGUGUCAAAUUCGGCGAAACCUAAGCGCCCGCCCGGGCGUAUGGCAACGCGGAGCCAAGCUUCGGCGCCUGCGCCGAUGAAGGUGUAGUGACUAGACGGCACCCACCUAAGGCAAACGUUAUGGUGAAGGCAUAGUCCAGGGAGUGGCGAAAGUCACACAAACCGG [C82G A120U C150U], the reverse-splicing fitness was determined as 0.1. Turning to GUGCCUUGCGCCGGGAAACCACGCAAGGGAUGGUGUCAAAUUCGGCGAAACCUAAGCGCCCGCCCGGGCGUAUGGCAACGCGGAGCCAAGCUUCGGCGCCUGCGCCGAUGAAGGUGUAGUGACUAGACGGCACCCACCUAAGGCAAACGGUAUGGUGAAGGCAUAGUCUAGGGAGUGGCGAAAGUCACACAAACCGG [C82G A120U C150G C169U], the reverse-splicing fitness came out at 0.00456.

Take GUGCCUUGCGCCGGGAAACCACGCAAGGGAUGGUGUCAAAUUCGGCGAAACCUAAGCGCCCGCCCGGGCGUAUGGCAACGCGGAGCCAAGCUUCGGCGCCUGCGCCGAUGAAGGUGUAGUGACUAGACGGCACCCACCUAAGGCAAACGUUAUGGUGAAGGCAUAGUCUAGGGAGUGGCGAAAGUCACACAAACCGG [C82G A120U C150U C169U]: the reverse-splicing fitness worked out at 0.00575. As for GUGCCUUGCGCCGGGAAACCACGCAAGGGAUGGUGUCAAAUUCGGCGAAACCUAAGCGCCCGCCCGGGCGUAUGGCAACGCGGAGCCAAGCUUCGGCGCCUGCGCCGAUGAAGGUGUAGUGACUAGACGGCACCCACCUAAGGCAAACGUUAUGGUGAAGGCAUAGUCAAGGGAGUGGCGAAAGUCACACAAACCGG [C82G A120U C150U C169A], the reverse-splicing fitness was found to be 0.00461. Take GUGCCUUGCGCCGGGAAACCACGCAAGGGAUGGUGUCAAAUUCGGCGAAACCUAAGCGCCCGCCCGGGCGUAUGGCAACGCGGAGCCAAGCUUCGGCGCCUGCGCCGAUGAAGGUGUAGUGACUAGACGGCACCCACCUAAGGCAAACGUUAUGGUGAAGGCAUAGUCGAGGGAGUGGCGAAAGUCACACAAACCGG [C82G A120U C150U C169G]: the reverse-splicing fitness is 0.00527.

GUGCCUUGCGCCGGGAAACCACGCAAGGGAUGGUGUCAAAUUCGGCGAAACCUAAGCGCCCGCCCGGGCGUAUGGCAACGCGGAGCCAAGCUUCGGCGCCUGCGCCGAUGAAGGUGUAGUGACUAGACGGCACCCACCUAAGGCAAACGUUAUGGUGAAGGCAUAGUCAAGGGAGGGGCGAAAGUCACACAAACCGG [C82G A120U C150U C169A U176G]: the reverse-splicing fitness was 0.00166. For the variant GUGCCUUGCGCCGGGAAACCACGCAAGGGAUGGUGUCAAAUUCGGCGAAACCUAAGCGCCCGCCCGGGCGUAUGGCAACGCGGAGCCAAGCUUCGGCGCCUGCGCCGAUGAAGGUGUAGUGACUAGACGGCACCCACCUAAGGCAAACGUUAUGGUGAAGGCAUAGUCAAGGGAGAGGCGAAAGUCACACAAACCGG [C82G A120U C150U C169A U176A], the reverse-splicing fitness was determined as 0.00417. As for GUGCCUUGCGCCGGGAAACCACGCAAGGGAUGGUGUCAAAUUCGGCGAAACCUAAGCGCCCGCCCGGGCGUAUGGCAACGCGGAGCCAAGCUUCGGCGCCUGCGCCGAUGAAGGUGUAGUGACUAGACGGCACCCACCUAAGGCAAACGUUAUGGUGAAGGCAUAGUCAAGGGAGCGGCGAAAGUCACACAAACCGG [C82G A120U C150U C169A U176C], the reverse-splicing fitness was 0.00267. Take GUGCCUUGCGCCGGGAAACCACGCAAGGGAUGGUGUCAAAUUCGGCGAAACCUAAGCGCCCGCCCGGGCGUAUGGCAACGCGGAGCCAAGCUUCGGCGCCUGCGCCGAUGAAGGUGUAGUGACUAGACGGCACCCACCUAAGGCAAACGUUAUGGUGAAGGCAUAGUCGAGGGAGAGGCGAAAGUCACACAAACCGG [C82G A120U C150U C169G U176A]: the reverse-splicing fitness is 0.00481. GUGCCUUGCGCCGGGAAACCACGCAAGGGAUGGUGUCAAAUUCGGCGAAACCUAAGCGCCCGCCCGGGCGUAUGGCAACGCGGAGCCAAGCUUCGGCGCCUGCGCCGAUGAAGGUGUAGUGACUAGACGGCACCCACCUAAGGCAAACGUUAUGGUGAAGGCAUAGUCGAGGGAGCGGCGAAAGUCACACAAACCGG [C82G A120U C150U C169G U176C]: the reverse-splicing fitness amounted to 0.00376. On to GUGCCUUGCGCCGGGAAACCACGCAAGGGAUGGUGUCAAAUUCGGCGAAACCUAAGCGCCCGCCCGGGCGUAUGGCAACGCGGAGCCAAGCUUCGGCGCCUGCGCCGAUGAAGGUGUAGUGACUAGACGGCACCCACCUAAGGCAAACGUUAUGGUGAAGGCAUAGUCGAGGGAGGGGCGAAAGUCACACAAACCGG [C82G A120U C150U C169G U176G], for which the reverse-splicing fitness was 0.00205. With GUGCCUUGCGCCGGGAAACCACGCAAGGGAUGGUGUCAAAUUCGGCGAAACCUAAGCGCCCGCCCGGGCGUAUGGCAACGCGGAGCCAAGCUUCGGCGCCUGCGCCGAUGAAGGUGUAGUGACUAGACGGCACCCACCUAAGGCAAACGUUAUGGUGAAGGCAUAGUCUAGGGAGGGGCGAAAGUCACACAAACCGG [C82G A120U C150U C169U U176G], the reverse-splicing fitness is 0.00193. Under GUGCCUUGCGCCGGGAAACCACGCAAGGGAUGGUGUCAAAUUCGGCGAAACCUAAGCGCCCGCCCGGGCGUAUGGCAACGCGGAGCCAAGCUUCGGCGCCUGCGCCGAUGAAGGUGUAGUGACUAGACGGCACCCACCUAAGGCAAACGUUAUGGUGAAGGCAUAGUCUAGGGAGAGGCGAAAGUCACACAAACCGG [C82G A120U C150U C169U U176A] stands 0.00509. Consider GUGCCUUGCGCCGGGAAACCACGCAAGGGAUGGUGUCAAAUUCGGCGAAACCUAAGCGCCCGCCCGGGCGUAUGGCAACGCGGAGCCAAGCUUCGGCGCCUGCGCCGAUGAAGGUGUAGUGACUAGACGGCACCCACCUAAGGCAAACGUUAUGGUGAAGGCAUAGUCUAGGGAGCGGCGAAAGUCACACAAACCGG [C82G A120U C150U C169U U176C], for which the reverse-splicing fitness was found to be 0.00336.
